Reference: the supplement of paper PMC9112550, “Optimization of the antimicrobial peptide Bac7 by deep mutational scanning” (BMC Biology, 2022)

Test system: Escherichia coli TOP10
Assay: shrunken log2 fold change of peptide-encoding DNA abundance (4.5 h post-induction vs induction); higher = less antimicrobial activity (less host growth inhibition)
Details: time post-induction: 4.5 h; library: site-saturation at positions 5, 18, 19, 20
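Also: peptides expressed intracellularly from a pBAD plasmid library in pooled LB shake-flask culture, induced with 0.3% L-arabinose, DNA abundance read by NGS, three biological replicates, DESeq2 with apeglm shrinkage.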

| Sequence | shrunken log2 fold change |
| --- | --- |
| RRIRHRPPRLPRPRPRPGMCPRP | -0.493 |
| RRIRARPPRLPRPRPRPNGQPRP | 0.208 |
| RRIRSRPPRLPRPRPRPARMPRP | -0.0672 |
| RRIRYRPPRLPRPRPRPKPCPRP | -0.0304 |
| RRIRMRPPRLPRPRPRPSIKPRP | -0.0928 |
| RRIRDRPPRLPRPRPRPQNIPRP | -0.126 |
| RRIRFRPPRLPRPRPRPTTFPRP | -0.388 |
| RRIRDRPPRLPRPRPRPEPRPRP | 1 |
| RRIRKRPPRLPRPRPRPQLRPRP | 0.2 |
| RRIRKRPPRLPRPRPRPNVLPRP | -0.112 |
| RRIRVRPPRLPRPRPRPRNVPRP | -0.192 |
| RRIRTRPPRLPRPRPRPDVAPRP | -0.0174 |
| RRIRARPPRLPRPRPRPKAIPRP | 0.496 |
| RRIRERPPRLPRPRPRPMHFPRP | -0.163 |
| RRIRWRPPRLPRPRPRPRGHPRP | 0.404 |
| RRIRRRPPRLPRPRPRPMKYPRP | 0.00758 |
| RRIRIRPPRLPRPRPRPCWRPRP | 0.157 |
| RRIRHRPPRLPRPRPRPAVVPRP | -0.182 |
| RRIRYRPPRLPRPRPRPPEWPRP | 0.0503 |
| RRIRPRPPRLPRPRPRPNTHPRP | -0.00792 |
| RRIRTRPPRLPRPRPRPVIFPRP | -0.335 |
| RRIRSRPPRLPRPRPRPMIRPRP | 0.0902 |
| RRIRHRPPRLPRPRPRPRKQPRP | 0.11 |
| RRIRARPPRLPRPRPRPVEVPRP | 0.236 |
| RRIRPRPPRLPRPRPRPVGAPRP | 0.561 |

| Sequence | shrunken log2 fold change |
| --- | --- |
| RRIRMRPPRLPRPRPRPRGHPRP | 1.33 |
| RRIRFRPPRLPRPRPRPLDCPRP | -0.112 |
| RRIRVRPPRLPRPRPRPNKMPRP | -0.411 |
| RRIRQRPPRLPRPRPRPHWYPRP | -0.0983 |
| RRIRVRPPRLPRPRPRPFRTPRP | -0.0962 |
| RRIRERPPRLPRPRPRPAHWPRP | 0.339 |
| RRIRLRPPRLPRPRPRPSPEPRP | 0.00229 |
| RRIRDRPPRLPRPRPRPMIFPRP | 0.0749 |
| RRIRVRPPRLPRPRPRPCRHPRP | 0.0429 |
| RRIRNRPPRLPRPRPRPSMFPRP | -0.458 |
| RRIRVRPPRLPRPRPRPTQIPRP | 0.149 |
| RRIRCRPPRLPRPRPRPEEQPRP | -0.0372 |
| RRIRARPPRLPRPRPRPTFQPRP | 0.529 |
| RRIRYRPPRLPRPRPRPKSMPRP | -0.584 |
| RRIRARPPRLPRPRPRPWCLPRP | -0.214 |
| RRIRQRPPRLPRPRPRPWFEPRP | -0.00226 |
| RRIRNRPPRLPRPRPRPLADPRP | -0.00474 |
| RRIRTRPPRLPRPRPRPKDKPRP | -0.341 |
| RRIRYRPPRLPRPRPRPQAEPRP | -0.0183 |
| RRIRMRPPRLPRPRPRPPLFPRP | 0.919 |
| RRIRKRPPRLPRPRPRPKYDPRP | 0.38 |
| RRIRCRPPRLPRPRPRPNPIPRP | -0.423 |
| RRIRPRPPRLPRPRPRPTTDPRP | 0.0167 |
| RRIRCRPPRLPRPRPRPGETPRP | 0.238 |
| RRIRARPPRLPRPRPRPFDGPRP | -0.22 |

| Sequence | shrunken log2 fold change |
| --- | --- |
| RRIRQRPPRLPRPRPRPENRPRP | 0.0211 |
| RRIRYRPPRLPRPRPRPGMTPRP | 0.0238 |
| RRIRTRPPRLPRPRPRPGEPPRP | -0.026 |
| RRIRDRPPRLPRPRPRPEKCPRP | -0.000921 |
| RRIRDRPPRLPRPRPRPPQGPRP | 0.289 |
| RRIRPRPPRLPRPRPRPMKWPRP | 0.291 |
| RRIRTRPPRLPRPRPRPRMHPRP | 0.0254 |
| RRIRNRPPRLPRPRPRPCYNPRP | -0.124 |
| RRIRERPPRLPRPRPRPTDCPRP | -0.399 |
| RRIRPRPPRLPRPRPRPWCVPRP | -0.133 |
| RRIRVRPPRLPRPRPRPDHPPRP | -0.386 |
| RRIRQRPPRLPRPRPRPIVHPRP | -0.265 |
| RRIRIRPPRLPRPRPRPYTAPRP | -1.28 |
| RRIRMRPPRLPRPRPRPFDTPRP | -0.0634 |
| RRIRRRPPRLPRPRPRPSAGPRP | 0.392 |
| RRIRWRPPRLPRPRPRPDVTPRP | 0.0084 |
| RRIRWRPPRLPRPRPRPQISPRP | -0.22 |
| RRIRFRPPRLPRPRPRPDVYPRP | -0.32 |
| RRIRKRPPRLPRPRPRPQKWPRP | 0.0282 |
| RRIRWRPPRLPRPRPRPFITPRP | -0.167 |
| RRIRRRPPRLPRPRPRPECFPRP | 0.3 |
| RRIRKRPPRLPRPRPRPVGGPRP | 0.544 |
| RRIRKRPPRLPRPRPRPKWFPRP | -0.039 |
| RRIRCRPPRLPRPRPRPEADPRP | 0.819 |
| RRIRVRPPRLPRPRPRPSYRPRP | -0.775 |
